Data from patent US20260028424A1 (GRANULAR THERAPEUTICS, published 2026).

Legend:
[1] = target: T1, c-Kit on KU812 cells (UniProt P10721 26-976, limits assumed); assay: flow cytometry on KU812 cells, which carry both c-Kit and CD203c; signal not separated by target
T1 construct: whole, on cells; also called c-Kit receptor; CD117
Protocol: (§1) All treatments were performed on cells seeded in T75 flasks at a seeding density of 0.3e6/ml. Cells were cultured in the presence of 80 ng/ml of SCF and treated with 20 ng/ml of IL3 24 hours prior to antibody staining. Following SCF/IL3 treatment, cells were harvested and stained with live dead stain (Zombie UV Biolegend 423108). Cells were then stained with a titration of anti-CD203c antibodies/bispecifics or respective isotype controls in a 5-fold dilution series starting at 50 μg/mL and detected with Anti human-Fc AF647 antibody (JIR 109-605-098). Samples were subsequently run on a Yeti analyzer, gating on 10K live cells. Subsequent analysis was performed using FlowJo software and data represented as MFI (median fluorescent intensity).
(§2) The purified proteins were assessed for co-operative binding to both targets, CD203c and c-Kit, on KU812 cells. […] This enhanced binding translates to potent inhibition of c-Kit receptor phosphorylation by the F6/MH1 bispecific molecule when compared to monovalent anti-c-kit, which is shown in FIG. 8.

[2] = target: T2, human CD203c expressed on the surface of KU812 cells (human, UniProt O14638 1-875); assay: as above
T2 construct: whole, on cells; also called cell-surface CD203c; cell surface CD203c on KU812 cells
T2 sequence (looked up): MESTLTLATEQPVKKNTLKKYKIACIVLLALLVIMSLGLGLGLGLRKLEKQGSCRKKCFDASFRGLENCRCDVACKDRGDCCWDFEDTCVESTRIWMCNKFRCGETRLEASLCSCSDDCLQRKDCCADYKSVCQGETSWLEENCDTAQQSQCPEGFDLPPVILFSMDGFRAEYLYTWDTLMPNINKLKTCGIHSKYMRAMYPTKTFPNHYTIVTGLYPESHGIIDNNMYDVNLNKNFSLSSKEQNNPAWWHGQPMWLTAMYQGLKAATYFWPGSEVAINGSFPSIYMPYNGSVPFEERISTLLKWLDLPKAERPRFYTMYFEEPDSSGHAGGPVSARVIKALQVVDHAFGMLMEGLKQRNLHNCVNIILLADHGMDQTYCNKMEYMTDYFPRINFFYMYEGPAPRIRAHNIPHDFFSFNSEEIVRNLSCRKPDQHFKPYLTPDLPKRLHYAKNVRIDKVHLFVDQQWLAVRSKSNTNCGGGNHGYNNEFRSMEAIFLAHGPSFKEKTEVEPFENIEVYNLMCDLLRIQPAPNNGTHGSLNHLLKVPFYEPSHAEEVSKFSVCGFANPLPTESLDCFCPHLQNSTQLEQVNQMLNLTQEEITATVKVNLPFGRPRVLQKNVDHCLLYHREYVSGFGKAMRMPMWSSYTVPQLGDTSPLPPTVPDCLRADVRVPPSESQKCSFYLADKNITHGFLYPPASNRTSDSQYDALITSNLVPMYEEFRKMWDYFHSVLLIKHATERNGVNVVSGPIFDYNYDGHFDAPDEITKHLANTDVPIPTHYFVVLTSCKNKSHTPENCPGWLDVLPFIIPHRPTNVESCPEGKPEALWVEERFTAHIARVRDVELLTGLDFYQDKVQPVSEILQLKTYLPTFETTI
Protocol: as §1, §2

[3] = target: T3, biotinylated human CD203c (bio-huCD203c, Acro, Cat. nr. H52H4) (human, UniProt O14638 49-875, limits assumed, biotinylated (site not stated)); assay: SPR, single-cycle protocol, Bio-huCD203c; table gives Rmax, Chi2 and KD only
T3 construct: Captured on a Biotin CAPture chip for SPR
T3 sequence (looked up): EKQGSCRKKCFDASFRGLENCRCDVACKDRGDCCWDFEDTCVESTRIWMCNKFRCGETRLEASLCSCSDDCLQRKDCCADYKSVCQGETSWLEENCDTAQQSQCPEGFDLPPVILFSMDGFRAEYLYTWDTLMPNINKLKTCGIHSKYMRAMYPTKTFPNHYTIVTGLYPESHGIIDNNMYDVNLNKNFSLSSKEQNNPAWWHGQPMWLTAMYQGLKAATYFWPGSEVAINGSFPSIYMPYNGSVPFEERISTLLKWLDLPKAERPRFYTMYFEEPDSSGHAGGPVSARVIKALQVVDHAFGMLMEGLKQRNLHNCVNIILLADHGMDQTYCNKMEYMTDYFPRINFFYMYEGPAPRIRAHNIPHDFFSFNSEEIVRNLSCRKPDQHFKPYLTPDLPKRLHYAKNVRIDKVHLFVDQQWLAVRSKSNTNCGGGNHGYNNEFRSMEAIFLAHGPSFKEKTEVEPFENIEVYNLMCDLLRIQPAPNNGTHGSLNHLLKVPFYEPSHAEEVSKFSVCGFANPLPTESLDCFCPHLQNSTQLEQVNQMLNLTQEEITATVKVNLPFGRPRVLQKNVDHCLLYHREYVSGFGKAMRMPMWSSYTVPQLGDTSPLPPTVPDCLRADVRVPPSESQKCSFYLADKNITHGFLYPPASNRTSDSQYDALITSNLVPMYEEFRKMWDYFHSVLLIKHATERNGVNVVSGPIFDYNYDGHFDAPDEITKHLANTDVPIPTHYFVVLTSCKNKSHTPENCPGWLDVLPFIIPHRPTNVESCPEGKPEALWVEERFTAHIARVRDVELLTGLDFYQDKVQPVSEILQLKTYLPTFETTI

[4] = target: T4, biotinylated cynomolgus CD203c (bio-cyCD203c, Icosagen) (cynomolgus monkey, UniProt A0A2K5TKP4 31-874, biotinylated (site not stated)); assay: SPR, single-cycle protocol, Bio-cyCD203c; table gives Rmax, Chi2 and KD only
T4 construct: Captured on a Biotin CAPture chip for SPR; also called cyno CD203c
T4 sequence: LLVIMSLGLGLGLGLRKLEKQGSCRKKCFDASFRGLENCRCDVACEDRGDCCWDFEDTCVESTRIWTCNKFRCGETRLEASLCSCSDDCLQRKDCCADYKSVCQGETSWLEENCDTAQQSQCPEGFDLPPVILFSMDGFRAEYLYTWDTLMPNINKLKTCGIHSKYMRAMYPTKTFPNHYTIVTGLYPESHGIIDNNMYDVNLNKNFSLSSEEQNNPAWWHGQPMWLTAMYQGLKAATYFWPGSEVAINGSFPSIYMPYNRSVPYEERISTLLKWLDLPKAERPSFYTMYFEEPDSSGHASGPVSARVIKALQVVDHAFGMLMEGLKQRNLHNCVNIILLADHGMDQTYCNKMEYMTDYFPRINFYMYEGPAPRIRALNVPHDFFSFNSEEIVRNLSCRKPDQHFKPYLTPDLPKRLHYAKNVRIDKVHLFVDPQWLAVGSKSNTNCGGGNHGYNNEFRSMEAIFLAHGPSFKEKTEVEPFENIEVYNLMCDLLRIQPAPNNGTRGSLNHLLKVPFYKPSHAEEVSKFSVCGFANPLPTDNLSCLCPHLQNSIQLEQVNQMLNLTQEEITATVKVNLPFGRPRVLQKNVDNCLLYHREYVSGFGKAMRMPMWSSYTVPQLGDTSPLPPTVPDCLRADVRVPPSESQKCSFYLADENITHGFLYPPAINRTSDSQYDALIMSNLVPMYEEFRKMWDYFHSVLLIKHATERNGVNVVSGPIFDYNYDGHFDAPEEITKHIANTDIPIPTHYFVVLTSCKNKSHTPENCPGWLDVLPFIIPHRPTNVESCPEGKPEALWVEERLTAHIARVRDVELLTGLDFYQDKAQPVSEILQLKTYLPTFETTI

[5] = target: T1, c-Kit on KU812 cells; assay: flow cytometry on KU812 cells, which carry both c-Kit and CD203c (median fluorescence intensity); signal not separated by target; no unit follows the number, the axis is in nM and the dotted line stands at about 0.2
Protocol: as §1

[6] = target: T2, human CD203c expressed on the surface …; assay: as above
Protocol: as §1

[7] = target: cyno c-Kit (SPR) (cyno, UniProt F6V858 26-520 (rhesus entry)); assay: SPR, single-cycle kinetics, Cynomolgus C-kit
[8] = target: human c-Kit (SPR) (human, UniProt P10721 26-520, limits assumed); assay: SPR, single-cycle kinetics, Human C-kit
[9] = target: T1, c-Kit on KU812 cells; assay: flow cytometry on KU812 cells, which carry both c-Kit and CD203c (median fluorescence intensity); signal not separated by target
Protocol: as §1

[10] = target: T2, human CD203c expressed on the surface …; assay: as above
Protocol: as §1

Sequence of human c-Kit (SPR) (P10721 26-520 limits assumed): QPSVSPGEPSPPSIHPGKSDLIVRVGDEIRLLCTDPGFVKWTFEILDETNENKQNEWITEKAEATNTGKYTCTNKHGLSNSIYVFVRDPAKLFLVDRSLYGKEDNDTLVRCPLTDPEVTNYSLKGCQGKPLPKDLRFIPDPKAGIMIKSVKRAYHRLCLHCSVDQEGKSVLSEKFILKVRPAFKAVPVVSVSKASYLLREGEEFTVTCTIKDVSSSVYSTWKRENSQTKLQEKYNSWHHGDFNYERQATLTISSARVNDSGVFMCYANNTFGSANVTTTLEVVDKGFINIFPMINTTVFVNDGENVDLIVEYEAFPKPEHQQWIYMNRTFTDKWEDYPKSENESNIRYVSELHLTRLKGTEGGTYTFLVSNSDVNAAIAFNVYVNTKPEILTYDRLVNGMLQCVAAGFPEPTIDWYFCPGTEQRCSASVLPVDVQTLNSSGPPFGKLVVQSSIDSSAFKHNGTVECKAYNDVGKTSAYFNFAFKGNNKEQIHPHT
Sequence of cyno c-Kit (SPR) (chain, as listed by the source): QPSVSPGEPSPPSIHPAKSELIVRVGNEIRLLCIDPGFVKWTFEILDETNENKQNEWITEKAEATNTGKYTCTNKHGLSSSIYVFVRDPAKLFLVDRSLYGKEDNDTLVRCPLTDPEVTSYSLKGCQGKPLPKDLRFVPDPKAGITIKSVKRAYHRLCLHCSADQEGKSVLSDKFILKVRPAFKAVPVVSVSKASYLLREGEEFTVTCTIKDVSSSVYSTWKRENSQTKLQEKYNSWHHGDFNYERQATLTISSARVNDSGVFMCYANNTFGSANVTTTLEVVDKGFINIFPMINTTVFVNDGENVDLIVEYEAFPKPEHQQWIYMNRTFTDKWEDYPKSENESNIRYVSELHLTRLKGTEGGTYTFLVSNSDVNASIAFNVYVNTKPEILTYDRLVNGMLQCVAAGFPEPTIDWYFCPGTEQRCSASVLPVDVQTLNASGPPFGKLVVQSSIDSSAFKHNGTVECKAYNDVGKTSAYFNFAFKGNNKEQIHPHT
T1 sequence (P10721 26-976 limits assumed): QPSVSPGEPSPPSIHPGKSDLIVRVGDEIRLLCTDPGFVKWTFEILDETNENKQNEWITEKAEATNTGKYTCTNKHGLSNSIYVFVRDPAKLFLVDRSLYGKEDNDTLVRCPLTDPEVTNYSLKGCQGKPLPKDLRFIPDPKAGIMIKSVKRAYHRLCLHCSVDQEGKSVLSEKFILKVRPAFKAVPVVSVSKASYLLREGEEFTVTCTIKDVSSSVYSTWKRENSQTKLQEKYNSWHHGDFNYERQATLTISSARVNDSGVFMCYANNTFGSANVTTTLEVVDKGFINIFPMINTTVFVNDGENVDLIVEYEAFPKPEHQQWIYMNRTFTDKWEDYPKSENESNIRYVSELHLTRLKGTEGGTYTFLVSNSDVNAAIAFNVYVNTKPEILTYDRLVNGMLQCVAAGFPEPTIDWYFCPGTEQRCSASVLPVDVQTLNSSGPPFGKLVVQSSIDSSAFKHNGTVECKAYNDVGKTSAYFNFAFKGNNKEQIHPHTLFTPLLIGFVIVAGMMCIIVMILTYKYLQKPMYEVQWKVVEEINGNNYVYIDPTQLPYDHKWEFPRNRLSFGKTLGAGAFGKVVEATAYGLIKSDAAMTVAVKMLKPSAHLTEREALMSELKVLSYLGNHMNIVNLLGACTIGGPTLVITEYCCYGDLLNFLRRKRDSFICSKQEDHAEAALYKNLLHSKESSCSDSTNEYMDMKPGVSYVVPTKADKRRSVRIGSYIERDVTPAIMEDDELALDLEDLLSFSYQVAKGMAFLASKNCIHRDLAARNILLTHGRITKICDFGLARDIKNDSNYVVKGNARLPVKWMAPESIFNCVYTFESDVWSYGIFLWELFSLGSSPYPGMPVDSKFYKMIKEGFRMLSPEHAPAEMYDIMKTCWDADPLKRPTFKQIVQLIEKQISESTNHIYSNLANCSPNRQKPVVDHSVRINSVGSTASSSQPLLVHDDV

B1: 1.27/MH1 common light chain bispecific (anti-CD203c 1.27 x anti-c-Kit MH1) (bispecific antibody, V domains shown)
VH 1: QVQLVQSGAEVKKPGASVKVSCKASGYTFTDYYMNWVRQAPGQGLEWMGRIYPGSGNTYYAQKFQGRVTMTRDTSTSTVYMELSSLRSEDTAVYYCARGVYYYDYWGQGTLVTVSS
VH 2: EVQLVQSGAEVKKPGESLKISCKGSGYRFTSYWIGWVRQMPGKGLEWMGIIYPGDSDTRYSPSFQGQVTISADKSISTAYLQWSSLKASDTAMYYCARKDYYYYAMDVWGQGTTVTVSS
VL: DIQMTQSPSSLSASVGDRVTITCRASQGIRTNLAWFQQKPGKAPKSLIYAASSLQSGVPSRFSGSGSGTDFTLTISSLQPEDFATYYCQQYNSYPRTFGGGTKVEIK
notes: Knob-in-hole IgG1null bispecific with human Ckappa
- binding result [1]: binds
- binding result [2]: binds

B2: MH1_C/F6.12_D bispecific (pI-engineered) (bispecific antibody, V domains shown)
VH 1: QVQLVQSGAEVKEPGASVKVSCKASGYTFTDYYMNWVRQAPGQGLEWMGRIYPGSGNTYYAQNFQGRVTMTRDTSTSTVYMELSSLRSEDTAVYYCARGVYYYDYWGQGTLVTVSS
VH 2: QVQLVQSGAEVKKPGESLKISCKGSGYRFASNWIGWVRQMPGKGLEWMGEIYPGDSNTRYSPSFQGQVTISADKSISTAYLQWSRLKASDTAMYYCARKDYYYGIMDVWGQGTTVTVSS
VL: DIQMTQSPSSLSASVGDRVTITCRASQGIRTNLAWFQQKPGKAPKSLIYAASSLQSGVPSRFSGSGSGTDFTLTISSLQPEDFATYYCQQYNSYPRTFGGGTKVEIK
notes: as for B1
- Kd [3]: 79.2 nM
- Kd [4]: 63.1 nM
- EC50 [5]: 0.214 nM
- EC50 [6]: 0.214 nM
- Kd [7]: 52.3 nM
- koff [7]: 0.0152 s⁻¹
- kon [7]: 291000 M⁻¹ s⁻¹
- Kd [8]: 43 nM
- koff [8]: 0.00919 s⁻¹
- kon [8]: 214000 M⁻¹ s⁻¹

B3: FJ2156_MH1_C x F6_12B huIgG1 KIH (bispecific antibody, V domains shown)
VH 1: QVQLVQSGAEVKEPGASVKVSCKASGYTFTDYYMNWVRQAPGQGLEWMGRIYPGSGNTYYAQNFQGRVTMTRDTSTSTVYMELSSLRSEDTAVYYCARGVYYYDYWGQGTLVTVSS
VH 2: QVQLVQSGAEVKKPGESLKISCKGSGYRFASNWIGWVRQMPGKGLQWMGEIYPGDSNTRYSPSFQGQVTISADKSISTAYLQWSSLKASDTAMYYCARKDYYYGIMDVWGQGTTVTVSS
VL: DIQMTQSPSSLSASVGDRVTITCRASQGIRTNLAWFQQKPGKAPKSLIYAASSLQSGVPSRFSGSGSGTDFTLTISSLQPEDFATYYCQQYNSYPRTFGGGTKVEIK
notes: also called MH1_C/F6.12_B
- Kd [3]: 108 nM
- EC50 [9]: 0.238 nM
- EC50 [10]: 0.238 nM
- Kd [4]: 75.8 nM
- Kd [7]: 52.4 nM
- koff [7]: 0.0155 s⁻¹
- kon [7]: 295000 M⁻¹ s⁻¹
- Kd [8]: 44.5 nM
- koff [8]: 0.00949 s⁻¹
- kon [8]: 213000 M⁻¹ s⁻¹
